Experimental findings from patent US20090130692A1 are described below.

The target in the assay is bovine pancreatic trypsin (bovine) (UniProt P00760). Put plainly: inhibition of bovine trypsin, substrate Boc-Leu-Gly-Arg-pNA, tight-binding fit (Morrison); apparent Ki (Kiapp).
bovine pancreatic trypsin (bovine), sequence (P00760 24-246): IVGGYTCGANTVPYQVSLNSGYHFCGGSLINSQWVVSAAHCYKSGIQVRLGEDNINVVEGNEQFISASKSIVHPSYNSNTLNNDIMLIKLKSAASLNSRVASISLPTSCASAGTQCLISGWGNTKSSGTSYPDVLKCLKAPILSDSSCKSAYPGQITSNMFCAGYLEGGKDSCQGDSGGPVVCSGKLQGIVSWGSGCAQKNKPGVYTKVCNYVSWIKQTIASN

On to “barnase′-EETI-II fusion protein (from UniProt P00648 48-157)”, for which the Ki is 0.009 µM.

“barnase′-McoEeTI fusion protein (from UniProt P00648 48-157)”: the Ki stood at 0.071 µM.
